This is an account of results in patent US7642244 (Hoffmann-La Roche, dated 2010).

Common to all, as to experiment: cell-based or functional assay
One assay deals with T1, human NPY2 receptor (human, UniProt P49146 1-381).
T1 sequence (looked up): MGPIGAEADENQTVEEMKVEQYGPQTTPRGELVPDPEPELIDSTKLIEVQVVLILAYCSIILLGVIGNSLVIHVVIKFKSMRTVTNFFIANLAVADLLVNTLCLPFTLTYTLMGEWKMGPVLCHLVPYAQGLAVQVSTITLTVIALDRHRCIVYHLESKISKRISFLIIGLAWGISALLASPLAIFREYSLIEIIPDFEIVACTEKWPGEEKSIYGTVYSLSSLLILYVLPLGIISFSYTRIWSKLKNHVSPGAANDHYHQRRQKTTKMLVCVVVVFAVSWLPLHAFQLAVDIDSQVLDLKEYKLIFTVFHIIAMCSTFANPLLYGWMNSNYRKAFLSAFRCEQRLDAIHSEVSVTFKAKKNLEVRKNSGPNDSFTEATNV

A further assay has as its target Y1R.
The target of a further assay is Y4R.
The next assay addresses T2, Y5R.
T2 sequence (Q15761 whole entry, species assumed, looked up): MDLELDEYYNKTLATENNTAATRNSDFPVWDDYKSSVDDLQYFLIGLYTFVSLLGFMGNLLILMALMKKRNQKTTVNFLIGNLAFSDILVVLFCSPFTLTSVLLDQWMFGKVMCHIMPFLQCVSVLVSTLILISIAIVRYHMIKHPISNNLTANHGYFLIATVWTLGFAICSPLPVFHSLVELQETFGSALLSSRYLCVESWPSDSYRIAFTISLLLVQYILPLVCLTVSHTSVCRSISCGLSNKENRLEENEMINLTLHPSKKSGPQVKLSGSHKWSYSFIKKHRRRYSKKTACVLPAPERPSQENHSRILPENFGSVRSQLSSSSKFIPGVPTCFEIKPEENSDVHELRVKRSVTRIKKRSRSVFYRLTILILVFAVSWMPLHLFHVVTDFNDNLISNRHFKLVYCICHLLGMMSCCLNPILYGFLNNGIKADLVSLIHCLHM

Starred links: 1 amine or outer side, 2 acyl side, 3 side chain; linkers in the order of their positions; H or OH if unused. Non-standard residues stand in square brackets, D forms with d. Primed or numbered codes have the meaning given here. *: point of attachment. Pqa = 4-oxo-6-(1-piperazinyl)-3(4H)-quinazoline-acetic acid, O=C(Cn1cnc2ccc(N3CCN([*:1])CC3)cc2c1=O)[*:2]; Adamantane1carbonyl = O=C(C12CC3CC(CC(C3)C1)C2)*; PEG30,000 SSA″ = PEG-CH2CH2NHCOCH2CH2CO-; PEG30,000 SPA = (PEG-30,000)CH2CH2CO; NMeR = CN[C@@H](CCCNC(=N)N)C(=O)O

Y1R, sequence (P25929 whole entry): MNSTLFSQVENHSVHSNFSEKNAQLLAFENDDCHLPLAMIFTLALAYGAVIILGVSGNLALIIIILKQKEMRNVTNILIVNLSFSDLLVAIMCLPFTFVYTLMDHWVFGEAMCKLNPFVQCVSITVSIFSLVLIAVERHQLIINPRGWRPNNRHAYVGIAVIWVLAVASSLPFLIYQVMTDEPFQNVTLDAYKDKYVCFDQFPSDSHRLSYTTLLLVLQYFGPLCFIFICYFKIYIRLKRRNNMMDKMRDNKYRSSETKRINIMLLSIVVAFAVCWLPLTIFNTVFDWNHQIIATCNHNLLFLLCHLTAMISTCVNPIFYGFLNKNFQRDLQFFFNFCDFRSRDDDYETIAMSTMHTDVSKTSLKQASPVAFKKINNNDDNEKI

B1: Benzoyl-Ile-Lys-Pqa-Arg-His-Tyr-Leu-Asn-Trp-Val-Thr-Arg-Gln-(NMe)Arg-Tyr-NH2 (peptide)
peptide: IKXRHYLNWVTRQRY
HELM: PEPTIDE1{[O=C(c1ccccc1)[*:2]].I.K.[O=C(Cn1cnc2ccc(N3CCN([*:1])CC3)cc2c1=O)[*:2]].R.H.Y.L.N.W.V.T.R.Q.[meR].Y.[am]}$$$$V2.0
SMILES: CC[C@H](C)[C@H](NC(=O)c1ccccc1)C(=O)N[C@@H](CCCCN)C(=O)N1CCN(c2ccc3ncn(CC(=O)N[C@@H](CCCNC(=N)N)C(=O)N[C@@H](Cc4c[nH]cn4)C(=O)N[C@@H](Cc4ccc(O)cc4)C(=O)N[C@@H](CC(C)C)C(=O)N[C@@H](CC(N)=O)C(=O)N[C@@H](Cc4c[nH]c5ccccc45)C(=O)N[C@H](C(=O)N[C@H](C(=O)N[C@@H](CCCNC(=N)N)C(=O)N[C@@H](CCC(N)=O)C(=O)N(C)[C@@H](CCCNC(=N)N)C(=O)N[C@@H](Cc4ccc(O)cc4)C(N)=O)[C@@H](C)O)C(C)C)c(=O)c3c2)CC1
For the molecule B1, in the assay with human NPY2 receptor, the “Y2R EC50 (nM) FLIPR” value turned out to be 0.79 nM and the “Y2R EC50 (nM) cAMP” value came to 0.66 nM. Moreover, the “Y1R EC50 (nM) FLIPR” value with Y1R was more than 5000 nM. In addition, in the assay with Y4R, the “Y4R EC50 (nM) FLIPR” value is more than 5000 nM. For the same molecule, the “Y5R EC50 (nM) FLIPR” value with Y5R is more than 5000 nM.

B2: H-Ile-Lys-Pqa-Arg-His-Tyr-Leu-Asn-Leu-Val-Thr-Arg-Gln-NMe)Arg-Trp-NH2 (peptide)
peptide: IKXRHYLNLVTRQRW
HELM: PEPTIDE1{I.K.[O=C(Cn1cnc2ccc(N3CCN([*:1])CC3)cc2c1=O)[*:2]].R.H.Y.L.N.L.V.T.R.Q.[meR].W.[am]}$$$$V2.0
SMILES: CC[C@H](C)[C@H](N)C(=O)N[C@@H](CCCCN)C(=O)N1CCN(c2ccc3ncn(CC(=O)N[C@@H](CCCNC(=N)N)C(=O)N[C@@H](Cc4c[nH]cn4)C(=O)N[C@@H](Cc4ccc(O)cc4)C(=O)N[C@@H](CC(C)C)C(=O)N[C@@H](CC(N)=O)C(=O)N[C@@H](CC(C)C)C(=O)N[C@H](C(=O)N[C@H](C(=O)N[C@@H](CCCNC(=N)N)C(=O)N[C@@H](CCC(N)=O)C(=O)N(C)[C@@H](CCCNC(=N)N)C(=O)N[C@@H](Cc4c[nH]c5ccccc45)C(N)=O)[C@@H](C)O)C(C)C)c(=O)c3c2)CC1
With B2, in the assay with human NPY2 receptor, the “Y2R EC50 (nM) FLIPR” value was determined as 0.454 nM and the “Y2R EC50 (nM) cAMP” value turned out to be 1.06 nM. Moreover, the “Y1R EC50 (nM) FLIPR” value with Y1R was more than 5000 nM. In the assay with Y4R, the “Y4R EC50 (nM) FLIPR” value is more than 5000 nM. In addition, in the assay with Y5R, the “Y5R EC50 (nM) FLIPR” value was more than 5000 nM.
Take Ac-IK(PEG30,000 SPA)[Pqa]RHYLNWVTRQ[NMeR]Y-NH2 [Ac-Ile(PEG-30,000)CH2CH2CO(ε)Lys-Pqa-Arg-His-Tyr-Leu-Asn-Trp-Val-Thr-Arg-Gln-(NMe)Arg-Tyr-NH2]: in the assay with human NPY2 receptor, the “Y2R EC50 (nM) FLIPR” value was found to be 549 nM and the “Y2R EC50 (nM) cAMP” value was 24.4 nM. Besides, the “Y1R EC50 (nM) FLIPR” value with Y1R is more than 5000 nM. Also, the “Y4R EC50 (nM) FLIPR” value in the assay with Y4R was more than 5000 nM. Also, the “Y5R EC50 (nM) FLIPR” value with Y5R was more than 5000 nM.
Adamantane1carbonyl-IK[Pqa]RHYLNWVTRQ[NMeR]Y-NH2 [Adamantoyl-Ile-Lys-Pqa-Arg-His-Tyr-Leu-Asn-Trp-Val-Thr-Arg-Gln-(NMe)Arg-Tyr-NH2]: in the assay with human NPY2 receptor, the “Y2R EC50 (nM) FLIPR” value came to 2.33 nM and the “Y2R EC50 (nM) cAMP” value came to 2.9 nM. Also, the “Y1R EC50 (nM) FLIPR” value in the assay with Y1R was more than 5000 nM. Also, the “Y4R EC50 (nM) FLIPR” value with Y4R is more than 5000 nM. In addition, the “Y5R EC50 (nM) FLIPR” value in the assay with Y5R is more than 5000 nM.
On to Ac-IK(PEG30,000 SSA″)[Pqa]RHYLNWVTRQ[NMeR]Y-NH2, for which, in the assay with human NPY2 receptor, the “Y2R EC50 (nM) FLIPR” value stood at 1080 nM and the “Y2R EC50 (nM) cAMP” value was 20.7 nM. Further, the “Y1R EC50 (nM) FLIPR” value with Y1R is more than 5000 nM. The “Y4R EC50 (nM) FLIPR” value with Y4R was more than 5000 nM. In the assay with Y5R, the “Y5R EC50 (nM) FLIPR” value is more than 5000 nM.
